# Experimental data: patent US20220195049A1 (Scripps Research, published 2022)
# Molecular target: T1, PD-L1-Fc (PD-L1 antigen protein, extracellular region Met1-Thr239 fused to human Fc) (human, UniProt Q9NZQ7 19-239)
# T1 construct: range 1-239; the secreted protein lacks it; also called PD-L1-Fc antigen; pCEP4-PDL1-Fc product; not shown: human Fc fragment of the pCEP4-Fc vector
# Test: BLI (Octet); PD-1-coated biosensor dipped in a mix of PD-L1 antigen protein and antibody; KD from the Octet software
# T1 sequence (Q9NZQ7 19-239): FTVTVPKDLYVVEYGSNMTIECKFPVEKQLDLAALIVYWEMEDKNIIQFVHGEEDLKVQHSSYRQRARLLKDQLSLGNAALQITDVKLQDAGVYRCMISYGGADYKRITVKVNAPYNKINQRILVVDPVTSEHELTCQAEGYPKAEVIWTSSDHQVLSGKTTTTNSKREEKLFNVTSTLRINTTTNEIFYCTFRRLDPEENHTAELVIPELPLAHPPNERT
row,Binder,Kd
1,"KL001-16 (antibody, V domains shown) VH: QVQLVESGAEVKKPGSSVKVSCKASGGTFSSYAISWVRQAPGQGLEWMGRIIPILGIANYAQKFQGRVTVTADKSTSTAYMELSSLRSEDTAVYYCARSGYGYAYGSFDYWGQGTLVTVSS VL: QLVLTQPPSVSGAPGQTVTISCTGPTIGAGYDVHWYQQLPGAAPKLLIYGNLNRPSGVPDRFSGSKSGTSASLAITDLQAEDEADYYCQSYDSRLGVVFGGGTKLTVL",0.00908 nM
2,"KL001-20 (antibody, V domains shown) VH: QVQLVESGAEVKKPGSSVKVSCKASGGTFSSYAISWVRQAPGQGLEWMGRIIPIMGIANYAQKFQGRVTVTADKSTSTAYMELSSLRSEDTAVYYCARSGYGYAYGSFDYWGQGTLVTVSS VL: QLVLTQPPSVSGAPGQTVTISCTGPTIGAGYDVHWYQQLPGAAPKLLIYGNLNRPSGVPDRFSGSKSGTSASLAITDLQAEDEADYYCQSYDSTLGVVFGGGTKLTVL",0.0213 nM
3,"KL001-23 (antibody, V domains shown) VH: QVQLVESGAEVKKPGSSVKVSCKASGGTFSSYAISWVRQAPGQGLEWMGRIIPILGIANYAQKFQGRVTVTADKSTSTAYMELSSLRSEDTAVYYCARSGYGYAYGVFDHWGQGTLVTVSS VL: QLVLTQPPSVSGAPGQTVTISCTGPTIGAGYDVHWYQQLPGAAPKLLIYGNLNRPSGVPDRFSGSKSGTSASLAITDLQAEDEADYYCQSYDSRLGVVFGGGTKLTVL",0.0267 nM
4,"KL001-21 (antibody, V domains shown) VH: QVQLVESGAEVKKPGSSVKVSCKASGGTFSSYAISWVRQAPGQGLEWMGRIIPVLGIANYAQKFQGRVTVTADKSTSTAYMELSSLRSEDTAVYYCARSGYGYAYGSFDYWGQGTLVTVSS VL: QLVLTQPPSVSGAPGQTVTISCTGPTIGAGYDVHWYQQLPGAAPKLLIYGNLNRPSGVPDRFSGSKSGTSASLAITDLQAEDEADYYCQAYDSTLGVVFGGGTKLTVL",0.0283 nM
5,"KL001-14 (antibody, V domains shown) VH: QVQLVESGAEVKKPGSSVKVSCKASGGTFSSYAISWVRQAPGQGLEWMGRIIPILGIANYAQKFQGRVTVTADKSTSTAYMELSSLRSEDTAVYYCARSGYGYAYQSFDYWGQGTLVTVSS VL: QLVLTQPPSVSGAPGQTVTISCTGPQIGAGYDVHWYQQLPGAAPKLLIYGNLNRPSGVPDRFSGSKSGTSASLAITDLQAEDEADYYCQSYDSRLGVVFGGGTKLTVL",0.0204 nM
6,"KL001-19 (antibody, V domains shown) VH: QVQLVESGAEVKKPGSSVKVSCKASGGTFSSYAISWVRQAPGQGLEWMGRIIPILGIANYAQKFQGRVTVTADKSTSTAYMELSSLRSEDTAVYYCARSGYGYAYGSFDYWGQGTLVTVSS VL: QLVLTQPPSVSGAPGQTVTISCTGPTIGAGYDVHWYQQLPGAAPKLLIYGNLNRPSGVPDRFSGSKSGTSASLAITDLQAEDEADYYCQSYDSTVGVVFGGGTKLTVL",0.00655 nM
7,"KL001-27 (antibody, V domains shown) VH: QVQLVESGAEVKKPGSSVKVSCKASGGTFSSYAISWVRQAPGQGLEWMGRIIPILGIANYAQKFQGRVTVTADKSTSTAYMELSSLRSEDTAVYYCARSGYGYAYGSFDYWGQGTLVTVSS VL: QLVLTQPPSVSGAPGQTVTISCTGQTIGAGYDVHWYQQLPGAAPKLLIYGNLNRPSGVPDRFSGSKSGTSASLAITDLQAEDEADYYCQSYDSTDGVVFGGGTKLTVL",0.0612 nM
8,"KL001-26 (antibody, V domains shown) VH: QVQLVESGAEVKKPGSSVKVSCKASGGTFSSYAISWVRQAPGQGLEWMGRIIPILGIANYAQKFQGRVTVTADKSTSTAYMELSSLRSEDTAVYYCARSGYGYAYGSFDYWGQGTLVTVSS VL: QLVLTQPPSVSGAPGQTVTISCTGPTIGQGYDVHWYQQLPGAAPKLLIYGNLNRPSGVPDRFSGSKSGTSASLAITDLQAEDEADYYCQSYDSRLGVVFGGGTKLTVL",0.0572 nM
9,"KL001-12 (antibody, V domains shown) VH: QVQLVESGAEVKKPGSSVKVSCKASGGTFSSYAISWVRQAPGQGLEWMGRIIPILGIANYAQKFQGRVTVTADKSTSTAYMELSSLRSEDTAVYYCARSGYGYAYGSFDYWGQGTLVTVSS VL: QLVLTQPPSVSGAPGQTVTISCTGPTIGAGYDVHWYQQLPGAAPKLLIYGNLNRPSGVPDRFSGSKSGTSASLAITDLQAEDEADYYCQSYDSALGVVFGGGTKLTVL",0.015 nM
10,"KL001-17 (antibody, V domains shown) VH: QVQLVESGAEVKKPGSSVKVSCKASGGTFSSYAISWVRQAPGQGLEWMGRIIPILGIANYAQKFQGRVTVTADKSTSTAYMELSSLRSEDTAVYYCARSGYGYAYGSFDYWGQGTLVTVSS VL: QLVLTQPPSVSGAPGQTVTISCTGPVIGAGYDVHWYQQLPGAAPKLLIYGNLNRPSGVPDRFSGSKSGTSASLAITDLQAEDEADYYCQSYDSRLGVVFGGGTKLTVL",0.0183 nM

# Further binders by falling Kd, results first:
row,Kd,Binder
1,0.049 nM,"KL001-22 (antibody, V domains shown) VH: QVQLVESGAEVKKPGSSVKVSCKASGGTFSSYAISWVRQAPGQGLEWMGRISPILGIANYAQKFQGRVTVTADKSTSTAYMELSSLRSEDTAVYYCARSGYGYAYGSFDYWGQGTLVTVSS VL: QLVLTQPPSVSGAPGQTVTISCTGPTIGAGYDVHWYQQLPGAAPKLLIYGNLNRPSGVPDRFSGSKSGTSASLAITDLQAEDEADYYCQSYDSTLGVVFGGGTKLTVL"
2,0.0408 nM,"KL001-24 (antibody, V domains shown) VH: QVQLVESGAEVKKPGSSVKVSCKASGGTFSSYAISWVRQAPGQGLEWMGRIIPILGQANYAQKFQGRVTVTADKSTSTAYMELSSLRSEDTAVYYCARSGYGYAYGSFDYWGQGTLVTVSS VL: QLVLTQPPSVSGAPGQTVTISCTGPTIGAGFDVHWYQQLPGAAPKLLIYGNLNRPSGVPDRFSGSKSGTSASLAITDLQAEDEADYYCQSYDSRLGVVFGGGTKLTVL"
3,0.0216 nM,"KL001-09 (antibody, V domains shown) VH: QVQLVESGAEVKKPGSSVKVSCKASGGTFSSYAISWVRQAPGQGLEWMGRIIPILQIANYAQKFQGRVTVTADKSTSTAYMELSSLRSEDTAVYYCARSGYGYAYGSFDYWGQGTLVTVSS VL: QLVLTQPPSVSGAPGQTVTISCTGPPIGAGYDVHWYQQLPGAAPKLLIYGNLNRPSGVPDRFSGSKSGTSASLAITDLQAEDEADYYCQSYDSTPGVVFGGGTKLTVL"
4,0.0216 nM,"KL001-02 (antibody, V domains shown) VH: QVQLVESGAEVKKPGSSVKVSCKASGGTFSSYAISWVRQAPGQGLEWMGRIIPILGIANYAQKFQGRVTVTADKSTSTAYMELSSLRSEDTAVYYCARSGHGYAYGSFDYWGQGTLVTVSS VL: QLVLTQPPSVSGAPGQTVTISCTGPTIGQGYDVHWYQQLPGAAPKLLIYGNLNRPSGVPDRFSGSKSGTSASLAITDLQAEDEADYYCQSYDSRLGVVFGGGTKLTVL"
5,0.0201 nM,"KL001-10 (antibody, V domains shown) VH: QVQLVESGAEVKKPGSSVKVSCKASGGTFSSYAISWVRQAPGQGLEWMGRIIPILGIANYAQKFQGRVTVTADKSTSTAYMELSSLRSEDTAVYYCARSGYGYAYGSFDYWGQGTLVTVSS VL: QLVLTQPPSVSGAPGQTVTISCTGPTIGAGYDVHWYQQLPGAAPKLLIYGNLNRPSGVPDRFSGSKSGTSASLAITDLQAEDEADYYCQSYDQTLGVVFGGGTKLTVL"
6,0.0169 nM,"KL001-06 (antibody, V domains shown) VH: QVQLVESGAEVKKPGSSVKVSCKASGGTFSSYAISWVRQAPGQGLEWMGRIIPILGIANYAQKFQGRVTVTADKSTSTAYMELSSLRSEDTAVYYCARSGYGYAYGSFDVWGQGTLVTVSS VL: QLVLTQPPSVSGAPGQTVTISCTGPTIGAGYDVHWYQQLPGAAPKLLIYGNLNRPSGVPDRFSGSKSGTSASLAITDLQAEDEADYYCQSYDSRLGVVFGGGTKLTVL"
7,0.0163 nM,"KL001-11 (antibody, V domains shown) VH: QVQLVESGAEVKKPGSSVKVSCKASGGTFSSYAISWVRQAPGQGLEWMGRIIPILGIANYAQKFQGRVTVTADKSTSTAYMELSSLRSEDTAVYYCARSGYGYAYGSFDYWGQGTLVTVSS VL: QLVLTQPPSVSGAPGQTVTISCTGPTIGAGYDVHWYQQLPGAAPKLLIYGNLNRPSGVPDRFSGSKSGTSASLAITDLQAEDEADYYCQSYDRTLGVVFGGGTKLTVL"
8,0.0161 nM,"KL001-18 (antibody, V domains shown) VH: QVQLVESGAEVKKPGSSVKVSCKASGGTFSSYAISWVRQAPGQGLEWMGRIIPILGIANYAQKFQGRVTVTADKSTSTAYMELSSLRSEDTAVYYCARSGYGYAYGSFDYWGQGTLVTVSS VL: QLVLTQPPSVSGAPGQTVTISCTGQTIGAGYDVHWYQQLPGAAPKLLIYGNLNRPSGVPDRFSGSKSGTSASLAITDLQAEDEADYYCQSYDSTEGVVFGGGTKLTVL"
9,0.0137 nM,"KL001-07 (antibody, V domains shown) VH: QVQLVESGAEVKKPGSSVKVSCKASGGTFSSYAISWVRQAPGQGLEWMGRQIPILGIANYAQKFQGRVTVTADKSTSTAYMELSSLRSEDTAVYYCARSGYGYAYGSFDYWGQGTLVTVSS VL: QLVLTQPPSVSGAPGQTVTISCTGPTIGAGYDVHWYQQLPGAAPKLLIYGNLNRPSGVPDRFSGSKSGTSASLAITDLQAEDEADYYCQSYDSRLGVVFGGGTKLTVL"
10,0.0136 nM,"KL001-04 (antibody, V domains shown) VH: QVQLVESGAEVKKPGSSVKVSCKASGGTFSSYAISWVRQAPGQGLEWMGRIIPILGIANYAQKFQGRVTVTADKSTSTAYMELSSLRSEDTAVYYCARSGYGYAYGSFAAWGQGTLVTVSS VL: QLVLTQPPSVSGAPGQTVTISCTGPTIGAGYDVHWYQQLPGAAPKLLIYGNLNRPSGVPDRFSGSKSGTSASLAITDLQAEDEADYYCQSYDSTLGVVFGGGTKLTVL"
11,0.0058 nM,"KL001-15 (antibody, V domains shown) VH: QVQLVESGAEVKKPGSSVKVSCKASGGTFSSYAISWVRQAPGQGLEWMGRIIPILGIANYAQKFQGRVTVTADKSTSTAYMELSSLRSEDTAVYYCARSGYGYAYGSFDYWGQGTLVTVSS VL: QLVLTQPPSVSGAPGQTVTISCTGPTIQAGYDVHWYQQLPGAAPKLLIYGNLNRPSGVPDRFSGSKSGTSASLAITDLQAEDEADYYCQSYDSRLGVVFGGGTKLTVL"
